{"source": "the Immune Epitope Database (IEDB)", "data": [{"molecular_target": "HLA-A*02:03", "experiment": "IEDB peptide-MHC binding, cellular MHC/competitive/fluorescence; ≥ and ≤ were set here for values at or beyond the usual limits of such assays", "conditions": "source organism: Vaccinia virus WR", "units": {"IC50": "µM"}, "values": [{"sequence": "KTNTKHCPKI", "IC50": 10.9}, {"sequence": "KTPVIVVPVI", "IC50": 6.2}, {"sequence": "KVEKYLPEVI", "IC50": 12.4}, {"sequence": "KVIKLVKSLV", "IC50": 13.4}, {"sequence": "LIYYQNEVT", "IC50": 5.21}, {"sequence": "LTHGADPNA", "IC50": 10.5}, {"sequence": "LTSNCTRTT", "IC50": 29.6}, {"sequence": "MAFILGIII", "IC50": 9.76}, {"sequence": "NACDKHNKT", "IC50": 9.25}, {"sequence": "NIREGTHVLL", "IC50": 5.51}, {"sequence": "NITHTNITTL", "IC50": 5.02}, {"sequence": "NTGMGMYYPT", "IC50": 21}, {"sequence": "NTLIQYRQQL", "IC50": 10.1}, {"sequence": "NVQSLIKFI", "IC50": 6.02}, {"sequence": "NVTGFMEEEI", "IC50": 5.14}, {"sequence": "PIPYSRVNHA", "IC50": 15.3}, {"sequence": "PVVYHDDDNT", "IC50": 26.8}, {"sequence": "RASTTENAA", "IC50": 66.7}, {"sequence": "RQLTSNVDV", "IC50": 9.76}, {"sequence": "RQQLEDIFM", "IC50": 26.9}, {"sequence": "SARALKAYFT", "IC50": 7.81}, {"sequence": "STSNVITDQT", "IC50": "≥ 70"}, {"sequence": "SVDFVVNGHT", "IC50": "≥ 70"}, {"sequence": "TAATKRYPGV", "IC50": 10.5}, {"sequence": "TAEQLSKYV", "IC50": 8.9}, {"sequence": "TAFFNTCKPT", "IC50": 22.3}, {"sequence": "TAIRAGYSI", "IC50": 9.2}, {"sequence": "TINALVYFST", "IC50": 7.34}, {"sequence": "TTNNLLEQLI", "IC50": 21}, {"sequence": "TVDFTDCRTI", "IC50": 10.4}, {"sequence": "TVKNVDIIDL", "IC50": 8.31}, {"sequence": "VIVPDIKLDA", "IC50": 21.4}, {"sequence": "VTPEYIKDL", "IC50": "≥ 70"}, {"sequence": "YVLFVKKML", "IC50": 12}]}, {"molecular_target": "HLA-A*02:01", "experiment": "IEDB peptide-MHC binding, cellular MHC/competitive/fluorescence; ≥ and ≤ were set here for values at or beyond the usual limits of such assays", "conditions": "source organism: Influenza A virus", "units": {"IC50": "µM"}, "values": [{"sequence": "NVTVTHSV", "IC50": 22.6}]}, {"molecular_target": "HLA-A*02:01", "experiment": "IEDB peptide-MHC binding, cellular MHC/competitive/fluorescence; ≥ and ≤ were set here for values at or beyond the usual limits of such assays", "conditions": "source organism: Mammarenavirus choriomeningitidis", "units": {"IC50": "µM"}, "values": [{"sequence": "HNASDFYGL", "IC50": 15.5}]}, {"molecular_target": "HLA-A*02:01", "experiment": "IEDB peptide-MHC binding, cellular MHC/competitive/fluorescence; ≥ and ≤ were set here for values at or beyond the usual limits of such assays", "conditions": "source organism: Vaccinia virus WR", "units": {"IC50": "µM"}, "values": [{"sequence": "ATCALVSDCA", "IC50": 55.8}, {"sequence": "AVYFKAKWLT", "IC50": 8.89}, {"sequence": "CTEETKRNI", "IC50": "≥ 70"}, {"sequence": "CVDIFTEGKI", "IC50": 43.2}, {"sequence": "CVKYLLDNDI", "IC50": 13}, {"sequence": "DAIKSNNHLT", "IC50": "≥ 70"}, {"sequence": "DTCGASINIT", "IC50": 42.6}, {"sequence": "DTDIVNNFI", "IC50": 26.2}, {"sequence": "DTEFINKFL", "IC50": "≥ 70"}, {"sequence": "DTIESAKTKI", "IC50": 58.9}, {"sequence": "DTSPTKRCRL", "IC50": "≥ 70"}, {"sequence": "DVEKRILNTI", "IC50": 55.1}, {"sequence": "DVIKSISSI", "IC50": 32}, {"sequence": "DVNSVQFSI", "IC50": 11.5}, {"sequence": "DVSVSVGTGI", "IC50": "≥ 70"}, {"sequence": "EAFETQSGA", "IC50": "≥ 70"}, {"sequence": "EALYYVHSL", "IC50": 17.6}, {"sequence": "EIVKNIREGT", "IC50": 11.8}, {"sequence": "ELPVKTDIV", "IC50": 11.1}, {"sequence": "ETAIRAGYSI", "IC50": 5.99}, {"sequence": "ETFPNVHEHI", "IC50": 23.9}, {"sequence": "ETIQKDINI", "IC50": "≥ 70"}, {"sequence": "ETKRNIARHL", "IC50": "≥ 70"}, {"sequence": "ETNIGCAVNT", "IC50": 58.4}, {"sequence": "ETVKMGAFM", "IC50": "≥ 70"}, {"sequence": "EVIGLTTHCT", "IC50": 24.8}, {"sequence": "FTELENKKV", "IC50": "≥ 70"}, {"sequence": "GLESIEQNLT", "IC50": 34.4}, {"sequence": "HTKFWISDNT", "IC50": "≥ 70"}, {"sequence": "IAIFNNRNL", "IC50": 38.5}, {"sequence": "KTNTKHCPKI", "IC50": 36.5}, {"sequence": "KTPVIVVPVI", "IC50": 12}, {"sequence": "KVEKYLPEVI", "IC50": 8.62}, {"sequence": "KVIKLVKSLV", "IC50": 24.9}, {"sequence": "LIYYQNEVT", "IC50": 27.9}, {"sequence": "LTHGADPNA", "IC50": "≥ 70"}, {"sequence": "LTSNCTRTT", "IC50": "≥ 70"}, {"sequence": "MAFILGIII", "IC50": 5.87}, {"sequence": "NACDKHNKT", "IC50": 22.5}, {"sequence": "NIREGTHVLL", "IC50": 13.4}, {"sequence": "NITHTNITTL", "IC50": 10.1}, {"sequence": "NTGMGMYYPT", "IC50": 28.8}, {"sequence": "NTLIQYRQQL", "IC50": "≥ 70"}, {"sequence": "NVQSLIKFI", "IC50": 17.1}, {"sequence": "PIPYSRVNHA", "IC50": 54}, {"sequence": "PVVYHDDDNT", "IC50": 11.7}, {"sequence": "RASTTENAA", "IC50": "≥ 70"}, {"sequence": "RQLTSNVDV", "IC50": 8.98}, {"sequence": "RQQLEDIFM", "IC50": 10}, {"sequence": "SARALKAYFT", "IC50": 58.4}, {"sequence": "STSNVITDQT", "IC50": 39.1}, {"sequence": "SVDFVVNGHT", "IC50": "≥ 70"}, {"sequence": "TAATKRYPGV", "IC50": 43.1}, {"sequence": "TAEQLSKYV", "IC50": 53.2}, {"sequence": "TAFFNTCKPT", "IC50": 37.9}, {"sequence": "TAIRAGYSI", "IC50": 26.6}, {"sequence": "TINALVYFST", "IC50": 5.16}, {"sequence": "TVDFTDCRTI", "IC50": 29.5}, {"sequence": "TVKNVDIIDL", "IC50": 63.3}, {"sequence": "VIVPDIKLDA", "IC50": 22.6}, {"sequence": "VTPEYIKDL", "IC50": 9.23}, {"sequence": "YVLFVKKML", "IC50": 5.15}]}, {"molecular_target": "HLA-A*02:06", "experiment": "IEDB peptide-MHC binding, purified MHC/competitive/radioactivity; ≥ and ≤ were set here for values at or beyond the usual limits of such assays", "conditions": "source organism: Vaccinia virus WR", "units": {"IC50": "µM"}, "values": [{"sequence": "KTNTKHCPKI", "IC50": 0.234}, {"sequence": "KTPVIVVPVI", "IC50": 1.89}, {"sequence": "KVEKYLPEVI", "IC50": 0.734}, {"sequence": "KVIKLVKSLV", "IC50": 2.15}, {"sequence": "PIPYSRVNHA", "IC50": 1.45}, {"sequence": "PVVYHDDDNT", "IC50": 1.35}, {"sequence": "RQLTSNVDV", "IC50": 0.17}, {"sequence": "RQQLEDIFM", "IC50": 0.944}, {"sequence": "VIVPDIKLDA", "IC50": 0.883}, {"sequence": "VTPEYIKDL", "IC50": 1.76}, {"sequence": "YVLFVKKML", "IC50": 2.54}]}, {"molecular_target": "HLA-A*68:02", "experiment": "IEDB peptide-MHC binding, purified MHC/competitive/radioactivity; ≥ and ≤ were set here for values at or beyond the usual limits of such assays", "conditions": "source organism: Influenza A virus", "units": {"IC50": "µM"}, "values": [{"sequence": "NVTVTHSV", "IC50": 1.27}]}, {"molecular_target": "HLA-A*68:02", "experiment": "IEDB peptide-MHC binding, purified MHC/competitive/radioactivity; ≥ and ≤ were set here for values at or beyond the usual limits of such assays", "conditions": "source organism: Mammarenavirus choriomeningitidis", "units": {"IC50": "µM"}, "values": [{"sequence": "HNASDFYGL", "IC50": 0.147}]}, {"molecular_target": "HLA-A*68:02", "experiment": "IEDB peptide-MHC binding, purified MHC/competitive/radioactivity; ≥ and ≤ were set here for values at or beyond the usual limits of such assays", "conditions": "source organism: Vaccinia virus WR", "units": {"IC50": "µM"}, "values": [{"sequence": "ATCALVSDCA", "IC50": 0.018}, {"sequence": "AVYFKAKWLT", "IC50": 0.605}, {"sequence": "CTEETKRNI", "IC50": 3.92}, {"sequence": "CVDIFTEGKI", "IC50": 1.31}, {"sequence": "CVKYLLDNDI", "IC50": 1.98}, {"sequence": "DAIKSNNHLT", "IC50": 0.768}, {"sequence": "DTCGASINIT", "IC50": 1.93}, {"sequence": "DTDIVNNFI", "IC50": 0.628}, {"sequence": "DTEFINKFL", "IC50": 0.117}, {"sequence": "DTIESAKTKI", "IC50": 0.57}, {"sequence": "DTSPTKRCRL", "IC50": 1.99}, {"sequence": "DVEKRILNTI", "IC50": 4.4}, {"sequence": "DVIKSISSI", "IC50": 0.504}, {"sequence": "DVNSVQFSI", "IC50": 0.026}, {"sequence": "DVSVSVGTGI", "IC50": 0.424}, {"sequence": "EAFETQSGA", "IC50": 0.104}, {"sequence": "EALYYVHSL", "IC50": 0.347}, {"sequence": "EIVKNIREGT", "IC50": 0.431}, {"sequence": "ELPVKTDIV", "IC50": 3.59}, {"sequence": "ETAIRAGYSI", "IC50": 0.134}, {"sequence": "ETFPNVHEHI", "IC50": 0.00045}, {"sequence": "ETIQKDINI", "IC50": 0.046}, {"sequence": "ETKRNIARHL", "IC50": 0.721}, {"sequence": "ETNIGCAVNT", "IC50": 0.022}, {"sequence": "ETVKMGAFM", "IC50": 0.081}, {"sequence": "EVIGLTTHCT", "IC50": 0.017}, {"sequence": "FTELENKKV", "IC50": 3.98}, {"sequence": "GLESIEQNLT", "IC50": 1.44}, {"sequence": "HTKFWISDNT", "IC50": 0.623}, {"sequence": "IAIFNNRNL", "IC50": 0.262}, {"sequence": "IAVSVYGAIT", "IC50": 4.38}, {"sequence": "LIYYQNEVT", "IC50": 1.08}, {"sequence": "LTHGADPNA", "IC50": 1.37}, {"sequence": "LTSNCTRTT", "IC50": 2.02}, {"sequence": "MAFILGIII", "IC50": 4.93}, {"sequence": "NACDKHNKT", "IC50": 0.925}, {"sequence": "NIREGTHVLL", "IC50": 2.53}, {"sequence": "NITHTNITTL", "IC50": 4.91}, {"sequence": "NTGMGMYYPT", "IC50": 2.15}, {"sequence": "NTLIQYRQQL", "IC50": 0.876}, {"sequence": "NVQSLIKFI", "IC50": 0.703}, {"sequence": "NVTGFMEEEI", "IC50": 1.48}, {"sequence": "RASTTENAA", "IC50": 0.314}, {"sequence": "SARALKAYFT", "IC50": 4.15}, {"sequence": "STSNVITDQT", "IC50": 0.077}, {"sequence": "SVDFVVNGHT", "IC50": 1.34}, {"sequence": "TAATKRYPGV", "IC50": 0.96}, {"sequence": "TAEQLSKYV", "IC50": 2.17}, {"sequence": "TAFFNTCKPT", "IC50": 0.535}, {"sequence": "TAIRAGYSI", "IC50": 0.125}, {"sequence": "TINALVYFST", "IC50": 0.391}, {"sequence": "TTNNLLEQLI", "IC50": 0.073}, {"sequence": "TVDFTDCRTI", "IC50": 0.348}, {"sequence": "TVKNVDIIDL", "IC50": 0.834}]}, {"molecular_target": "HLA-A*02:01", "experiment": "IEDB peptide-MHC binding, purified MHC/competitive/radioactivity; ≥ and ≤ were set here for values at or beyond the usual limits of such assays", "conditions": "source organism: Vaccinia virus WR", "units": {"IC50": "µM"}, "values": [{"sequence": "NVTGFMEEEI", "IC50": 4.4}, {"sequence": "TTNNLLEQLI", "IC50": 4.93}]}]}
